The values below come from patent publication US8343490B2, “Monoclonal antibody SC104 and derivative thereof specifically binding to a sialyltetraosyl carbohydrate as a potential anti-tumor therapeutic agent” (Cephalon Australia Pty Ltd, priority 2004, dated 2013).

Test [1] concerns pan caspase in C170 cells. The test can be described thus: Pan caspase activation (FITC-FMK-vad, flow cytometry). The test is classed as cell-based. The conditions noted are these: 30 μg/ml, up to 6 hrs; FIG. 17. The procedure:
Pan caspase activation. 2×10^5 colorectal C170 cells were exposed to 30 μg/ml of SC104 for up to 6 hrs and pan caspase FITC-FMK-vad (caspACE FITC-vad-FMK, Promega, catalogue number G7462) employed to establish caspase activation. The cells were analysed by flow cytometry. Controls included a negative control murine antibody and a Fas antibody at 100 ng/ml.
(In general: Flow cytometry measures light scatter and fluorescence of single cells or particles in a stream.)

The test system of test [2] is normal colonic extranuclear membranes. The test can be described thus: ELISA on extranuclear membranes of normal colon. The format is binding. Particulars: one line per patient (1-7). The procedure:
• Tumour and normal membrane extract binding. Extranuclear extractions of colorectal and normal colonic membranes were produced and binding of SC104 was assayed by ELISA. Results
On the technique in general: In an ELISA, binding on a coated surface is turned into a signal by an enzyme label.

Test [3] is described as follows: HPTLC immunostaining of C170 lipid extract fractions. The format is binding. The procedure:
• Lipid extraction from C170 tumour cells. A pellet of C170 cells (1 ml packed cell volume) was obtained by trypsinisation of a static adherent tissue culture. The pellet was washed in PBS and the excess buffer removed by aspiration following centrifugation, then stored at −80° C. The pellet was extracted with chloroform:methanol (3:1, v/v, 19 ml). The resultant emulsion was centrifuged at 8,000 rpm in a 50 ml solvent resistant (Tefzel) centrifuge tube for 15 min at 4° C. The supernatant was dried down using a rotary evaporator at 30° C. and resuspended in a small volume (˜1 ml) chloroform:methanol:0.5% CaCl2(aq) (50:40:10). • HPTLC analysis of lipid extracts The sample was multiply spotted onto a Merck HPTLC plate and developed in chloroform:methanol:0.5% CaCl2(aq) (50:40:10) as standard. The plates were dried and then placed in an iodine vapour tank. Bands were marked in pencil and the iodine allowed to evaporate off the plate over night. The plates were then immunostained in order to localise the antigen. • Immunostaining of developed HPTLC plates. For SC104 immunostaining, the plates were immersed in polyisobutyl methylmethacrylate (0.1% w/v solution) hexane:chloroform (9:1) for 15 seconds then allowed to dry. The plates were then blocked in 3% BSA in PBS for 1 hr at room temperature, followed by incubation in either test antibody solution (10 μg/ml) or BSA solution, for 1 hr at room temperature. The plates were then washed three times in PBS/Tween-20 (0.1%), before being incubated in rabbit anti-mouse HRP conjugate from Dako (1/250 in PBS) for 1 hr at room temperature. The plates were then washed three times in PBS/Tween −20(0.1%) and once in 10 mM Tris, 100 mM NaCl pH 7.0, 0.1% Tween and developed in Sigma-FAST […] reagent. • Chemical staining of developed HPTLC plates. Orcinol staining was employed to detect the presence of carbohydrate moieties. Developed HPTLC plates were allowed to dry before spraying with orcinol reagent until fully coated. The plates were dried in a stream of hot air and incubated at 100° C. for 15 minutes. Ninhydrin staining was used to detect molecules containing free amino groups. Developed HPTLC plate were first allowed to dry and then dipped in ninhydrin solution (0.25% ninhydrin w/v in acetone) until fully wetted. The plate was then allowed to develop at room temperature for several hours. Results
• Silica column fractionation of lipid extract. A gravity column (150 mm i.d.) was packed with a silica slurry in chloroform:methanol:0.5% CaCl2(aq) (50:40:10). The C170 extract, re-dissolved in ˜1 ml chloroform:methanol:0.5% CaCl2(aq) (50:40:10) was loaded onto the column and eluted using the same solvent conditions. Fractions were collected and analysed by HPTLC. […]

Test [4] has as its system colorectal tumour sections. Description: Immunoperoxidase staining of frozen colorectal tumour sections (screening). The test is classed as binding. On the set-up: key: −: negative; +: minimal; 2+: strong; 3+: very strong. The procedure:
ELISA. Antibody responses in the serum of immunised mice were assayed by titration using a standard non-competitive ELISA procedure. 96-well tissue culture plates were coated with C170 cells at a cell density of 5×10^5 cells/ml (100 μl/well) in 10% foetal bovine serum in RPMI 1640. The plates were incubated overnight at 37° C., 5% CO2, 95% air. The cells were then washed twice in phosphate buffered saline (pH7.3, PBS) prior to being fixed with 0.5% glutaraldehyde in PBS (10 min, 25° C., 100 μl/well). Remaining non-specific binding sites were blocked by incubation for 1 hr with 1% bovine serum albumin (fraction V from Sigma Chemicals Ltd.) in PBS. The cells were washed three times with a washing solution consisting of 0.05% Tween 20 in phosphate buffered saline before assaying post-boost serum for binding to C170 cells using a non-competitive sandwich ELISA. The pre-immunisation serum was used as a negative control. • Immunohistochemistry. Binding of hybridoma supernatants to tumour tissues was determined by indirect immunoperoxidase staining of frozen colorectal tumour sections. […] The bound antibody was detected with rabbit anti-mouse Ig conjugated to peroxidase (Dako Ltd., Bucks., UK) and following extensive washing the slides were stained with 0.05% diaminobenzidine and 0.01% H2O2 in 0.05M Tris-HCl, pH7.6 and counterstained with haematoxylin. […]

Another test deals with C170 tumour cells. Description: Annexin/PI dual colour flow cytometry. Particulars: concentration greater than 10 μg/ml; cells in suspension. The test is classed as cell-based. The text has this:
Annexin/PI. Tumour cells ([…]) or appropriate controls for 4 hr at room temperature could then also be stained with FITC labelled annexin and propidium iodide (Sigma, Poole, Dorset) and then analysed by dual colour flow cytometry.

“And” between values parts separate entries of the source, which are not always exact repeats. Identical values can stand only once.

B1: SC104: mouse IgG1 monoclonal antibody specific for a sialyltetraosyl carbohydrate, raised by immunisation with colorectal cancer cell lines (antibody, V domains shown)
VH: DVQLQESGPDLVKPSQSLSLTCTVTGYSITSGYSWHWVRQFPGNKMEWMGHIHFSGRPTYNPSLSSRISITRDTSKNQFLLQLKFVTTEDTSTYFCARKGKGSDDGLNYWGQGISVTVSS
VL: ENVLTQSPVIMSASPGEKVTMTCSASSSLSYIHWYQQKSRTSPKLWIYDTSNLASGVPGRFSGSGSGNSYSLTISSMEAEDVATYYCFQGSEYPLTFGGGTKLEMT
For B1, the pan caspase activation result in test [1] is given as “activates pan caspases after 5 hrs”. In addition, the “Binding of SC104 mab to extranuclear membranes: Normal colon” value in test [2] is 0.217 and 0.042 and 0.066 and 0.035 and 0.139 and 0.001 and 0.068. The “binding after chemical removal of sialic acids (acid hydrolysis)” value in test [3] (0.05 M sulphuric acid, 80° C., 2 hrs) is given as “complete loss of SC104 binding”. Moreover, the “binding to asialo form” value in test [3] (HPTLC immunostaining) is listed as “does not bind to an asialo form”. Besides, the “binding to sialylated glycolipid forms” value in test [3] (HPTLC immunostaining, silica column fractions) is “bind to a mono, di and even polysialylated glycolipid”. For the same molecule, the “binding after ceramide glycanase removal of oligosaccharides” value in test [3] (aqueous and organic phase, FIG. 8) was “loss of SC104 binding in both fractions”. Moreover, in test [4], the “Immunohistochemistry Colorectal Tumour” value is given as 3+. In the test on C170 tumour cells, the “cells staining with PI” value is reported as 75%; the “cells staining with annexin” value amounted to 30%; the “cells staining with both annexin and PI” value is 65%.
